# Assay results: patent US20220112288A1 (published 2022)
# Residue numbers refer to the chain shown, from its start.
# B1: 75110_06C16A (antibody, V domains shown)
# VH: QVQLQESGPGLVTPSETLSLSCTVSGGSISDYYWSWIRQPGGKGLEWIGRIYSSGSTNYNPSLKSRVTMSVDTSKNQFSLKLSSVTAADTAVYFCARDREDYYYYGMDVWGQGTTVTVSS
# VL: DIQMTQSPSSLSASVGDRVTITCQASHDISNYLNWYQQKPGKAPKLLIYAASNLETGVPSRFSGSGSGTDFSFTISSLQPEDIATYYCQQYDHLPLTFGGGTKVEIK
# notes: Tested as non-clonal AlivaMab Mouse Kappa hybridoma supernatant (detected with anti-mouse Fc gamma and anti-human kappa)
# B2: 75110_08D24A (antibody, V domains shown)
# VH: B1 VH with T13K, S21T, D31G, Y32F, G41A, S53T, G55E, S56N, F94Y, D101G
# VL: B1 VL with H27Q, S72T, H93S, L96I, G100Q, K103R, V104L
# notes: as for B1
# B3: 75110_06G04A (antibody, V domains shown)
# VH: QVQLLESGPGLVKPSETLSLTCTVSGGSISSYYWSWIRQPAGKGLEWIGRIYISGSTNYNPSLKSRVTMSIDTSENQFSLNLSSVTAADTAVYYCARELERPYYYGMDVWGQGTTVTVSS
# VL: B1 VL with H27Q, A50N, N53T, S72T, H93N, I106F
# notes: as for B1
# B4: 75110_05G15A (antibody, V domains shown)
# VH: QVQLQESGPGLVKPSQTLSLTCTVSGGSISSGGYFWSWIRQHPGKGLEWIGCIYYSGSTYYIPSLKSRVTISVDTSKNQFSLKLRSVTAADTAVYYCARDGYDYWYFDLWGRGTLVTVSS
# VL: not shown
# B5: 75110_03I08A (antibody, V domains shown)
# VH: QVQLQESGPGLVKPSETLSLTCTVSGGSISSYYWSWIRQPPGKGLEWIGYIYYSGSTNYNPSLKSRVTISVDTSKNQFSLKLSSVTAADTAVYYCAREGEQWFYGLDVWGQGTTVTVSS
# VL: EIVLTQSPGTLSLSPGERATLSCRASQSVSSTYLAWYQQKPGQAPRLLIYGSSSRATGIPDRFSGSGSGTDFTLTISRLEPEDFAVYYCQQYGNSFPITFGQGTRLEIK
# notes: Tested as non-clonal hybridoma supernatant (AlivaMab Mouse Kappa), detected with anti-mouse Fc and anti-human kappa
# B6: 75110_02I16A (antibody, V domains shown)
# VH: QVQLQQWGAGLLKPSETLSLTCDVYGGSFSGYYWTWIRQPPGKGLEWIGEINHSGTTNSNPSLKSRVTISVDTSKSQFSLRLSSVTAADTAVYFCTRELNWFDPWGQGTLVTVSS
# VL: DIQMTQSPSSVSASVGDRVTITCRASQDIANWLAWYQQKPGKAPQLLIYAASSLLGGVPSRFSGSGSGADFTLTISSLHPEDFATYYCQQANSFPYTFGQGTKLEIK
# notes: Tested as non-clonal AlivaMab Mouse hybridoma supernatant (human variable regions and human kappa, mouse Fc); also called ADS75110 non-clonal supernatant 02I16A
# B7: 75110_10K21A (antibody, V domains shown)
# VH: EVQLVESGGGLVQPGGSLRLSCAASGFTFSSYWMTWVRQAPGKGLEWVANIKQDGSEKYYVDSVKGRFTISRDNAKNSLYLQMNSLRAEDTAVYYCVRDRYDALDIWGQGTMVTVSS
# VL: AIQMTQSPSSLSASVGDRVTITCRASQGIRNDLNWYQQKPGKAPKLLIYAASSLQSGVPSRFSGSGSGTDFTLTISSLQAEDFATYYCLKDYNYPYTFGQGTKLEIK
# notes: Tested as non-clonal AlivaMab Mouse hybridoma supernatant (human variable regions and human kappa, mouse Fc); also called ADS75110 non-clonal supernatant 10K21A
# B8: 75110_08H06A (antibody, V domains shown)
# VH: EVQLVESGGGLVQPGGSLRLSCAASGFTFSNYDMHWVRQATGKGLEWVSTIGTAGDTYYPGSVKGRFTISRENAKNSLYLQMNSLRAGDTAVYYCARGGYDYYGMDVWGQGTTVTVSS
# VL: EIVLTQSPGTLSLSPGERATLSCRASQSITSIYLAWYRQKPGQAPRLLIYGASSRATGIPDRFSGSGSGTDFTLTISRLEPEDFAVYYCQQYGSSPFTFGPGTKVDIK
# notes: Tested as non-clonal AlivaMab Mouse hybridoma supernatant (human variable regions and human kappa, mouse Fc); also called ADS75110 non-clonal supernatant 08H06A
# B9: 75110_14H13A (antibody, V domains shown)
# VH: B8 VH with E72K, N83I, Y100D, D101Y
# VL: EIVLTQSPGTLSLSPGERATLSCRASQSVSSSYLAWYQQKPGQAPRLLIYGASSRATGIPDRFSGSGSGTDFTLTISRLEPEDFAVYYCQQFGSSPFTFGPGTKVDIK
# notes: Tested as non-clonal AlivaMab Mouse hybridoma supernatant (human variable regions and human kappa, mouse Fc); also called ADS75110 non-clonal supernatant 14H13A
# B10: 75110_10N21A (antibody, V domains shown)
# VH: B8 VH with N31S, A40V, D101Y
# VL: B8 VL with I29F, T30I, I32S, R38Q, E80D, Y92S, S94N, I107V
# notes: Tested as non-clonal AlivaMab Mouse hybridoma supernatant (human variable regions and human kappa, mouse Fc); also called ADS75110 non-clonal supernatant 10N21A
# B11: 75110_13C07A (antibody, V domains shown)
# VH: B8 VH with G10V, I69L, N83H, G99A, D101G
# VL: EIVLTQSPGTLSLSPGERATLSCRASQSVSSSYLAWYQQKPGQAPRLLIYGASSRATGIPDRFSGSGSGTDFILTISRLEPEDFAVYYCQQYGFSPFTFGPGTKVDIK
# notes: Tested as non-clonal AlivaMab Mouse hybridoma supernatant (human variable regions and human kappa, mouse Fc); also called ADS75110 non-clonal supernatant 13C07A
# B12: 75110_01H18A (antibody, V domains shown)
# VH: QVQLQQWGAGLLKPSETLSLTCAVYGGSFSGYYWSWIRQSPGKGLEWIGEINQSGSTNYNPSLKSRVTISVDTSKNQFSLKLSSVTAADTAVYYCARVINWFDSWGQGTLVTVSS
# VL: DIQMTQSPSSVSASVGDRVTITCRASQGISSWLAWYQQKPGKAPKLLIYAASSFQSGVPSRFSGSGSGTDFTLTISSLQTEDFATYYCQQANSFPYTFGQGTRLEIK
# notes: Tested as non-clonal AlivaMab Mouse hybridoma supernatant (human variable regions and human kappa, mouse Fc); also called ADS75110 non-clonal supernatant 01H18A
# Biological target: T1, human CD4 on cells (SKW3 cells; human PBMCs) (human, UniProt P01730 26-458)
# T1 construct: whole, on cells; SKW3 CD4 knockout cells served as the negative cell line in the primary screen; also called hCD4; huCD4
# Test: FACS confirmation, supernatant on human PBMCs;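 note: flow cytometry with hybridoma supernatants incubated on human PBMCs for 30 min at 4 °C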
Binder,"PBMCs CD4+ gate RL1 binding, anti-mFc 647",PBMCs CD4+ percent bound of viable [%]
B1,297000,28
B2,278000,30
B3,240000,30
B4,147000,32

# Biological target: T1, human CD4 on cells (SKW3 cells; human …)
# Test: FACS confirmation, supernatant on SKW3 cells; background gMFI 2500
row,Binder,"gMFI on SKW3 WT, anti-hu Kappa FITC [gMFI]"
1,B1,4660
2,B2,3570
3,B3,8480
4,B4,6000

# Biological target: T1, human CD4 on cells (SKW3 cells; human …)
# Test: FACS confirmation, supernatant on SKW3 cells; background gMFI 3300
row,Binder,"gMFI on SKW3 WT, anti-mFc 647 [gMFI]"
1,B1,12100
2,B2,20100
3,B3,33700
4,B4,28600

# Biological target: T1, human CD4 on cells (SKW3 cells; human …)
# Test: FACS primary screen, hybridoma supernatant, SKW3 vs SKW3 CD4 KO cells;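 note: flow cytometry on mixed SKW3 and dye-labeled SKW3 CD4 knockout cells after 30 min at 4 °C with supernatant, ratio of binding signal on parental versus knockout cells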
Binder,"SKW3 WT vs KO ratio, anti-hKappa-FITC","SKW3 WT vs KO ratio, anti-mFc-647"
B1,1.9,5
B2,1.1,4.1
B3,3.3,9.3
B4,1.5,2.8

# Biological target: T2, human CD4 on cells (SKW3 cells; human PBMCs) (human, UniProt P01730 26-458)
# T2 construct: whole, on cells; SKW3 CD4 knockout cells served as the negative cell line for the WT vs KO ratios; also called hCD4; SKW3 WT
# Test: FACS confirmation, supernatant on human PBMCs, anti-mFc 647, CD4+ gate
row,Binder,CD4+ gate RL1 Binding
1,B5,338000

# Biological target: T1, human CD4 on cells (SKW3 cells; human …)
# Test: FACS binning on SKW3 cells; competitor OKT4a; background 5000, max binding 35000
row,Binder,OKT4a signal (anti-hu A647) with supernatant
1,B1,36800
2,B2,42500
3,B3,30800
4,B4,42300

# Biological target: T2, human CD4 on cells (SKW3 cells; human …)
# Test: FACS confirmation, supernatant on SKW3 WT cells, anti-mFc 647 (Bkrd gMFI = 3300)
row,Binder,gMFI [gMFI]
1,B5,28000

# Biological target: T1, human CD4 on cells (SKW3 cells; human …)
# Test: FACS binning on SKW3 cells; competitor OKT4-A488; background 2163, max binding 8200
row,Binder,OKT4-A488 signal with supernatant
1,B1,8240
2,B2,7930
3,B3,9310
4,B4,8080

# Biological target: T2, human CD4 on cells (SKW3 cells; human …)
# Test: FACS confirmation, supernatant on human PBMCs, anti-mFc 647, percent of viable cells
row,Binder,CD4+ Percent Bound of Viable [%]
1,B5,32

# Biological target: T3, Recombinant human CD4 (R&D Systems, Cat. 10327-CD) (human, UniProt P01730 26-390, limits assumed)
# T3 construct: Bought protein; also called huCD4
# Test: BLI (Octet Red 384), non-clonal supernatant captured on AMC sensors, 100 nM human CD4
row,Binder,Response
1,B6,0.0373
2,B7,0.0687
3,B8,0.06
4,B9,0.14
5,B10,0.0658
6,B11,0.0171
7,B12,0.0657

# Biological target: T2, human CD4 on cells (SKW3 cells; human …)
# Test: FACS confirmation, supernatant on SKW3 WT cells, anti-hu Kappa FITC (Bkrd gMFI = 2500)
row,Binder,gMFI [gMFI]
1,B5,6120

# Biological target: T1, human CD4 on cells (SKW3 cells; human …)
# Test: FACS binning on SKW3 cells; competitor RPA-T4-PE-Dazzle 594; background 783, max binding 15000
row,Binder,RPA-T4-PE-Dazzle 594 signal with supernatant
1,B1,15600
2,B2,14600
3,B3,16600
4,B4,15800

# Biological target: T2, human CD4 on cells (SKW3 cells; human …)
# Test: FACS primary screen, non-clonal hybridoma supernatant; SKW3 WT vs SKW3 CD4 KO cells, anti-mFc-647
row,Binder,SKW3 WT vs KO anti-mFc-647 [fold]
1,B5,7.6

# Biological target: T3, Recombinant human CD4 (R&D Systems, …)
# Test: BLI (Octet Red 384), non-clonal supernatant captured on AMC sensors, 100 nM human CD4, 1:1 local fit;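 note: hybridoma antibodies from supernatants, one CD4 concentration giving single-point kinetics per supernatant, with curves fitted over both association and dissociation phases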
Binder,Kd [nM],koff [s⁻¹],kon [M⁻¹ s⁻¹]
B6,3.9,0.0012,308000
B7,2.66,0.000362,136000
B8,< 0.001,< 1e-07,120000
B9,< 0.001,< 1e-07,100000
B10,0.873,0.000133,152000
B11,84,0.0182,217000
B12,0.902,0.000148,165000

# Biological target: T2, human CD4 on cells (SKW3 cells; human …)
# Test: FACS primary screen, non-clonal hybridoma supernatant; SKW3 WT vs SKW3 CD4 KO cells, anti-hKappa-FITC
row,Binder,SKW3 WT vs KO anti-hKappa-FITC [fold]
1,B5,2.2

# Biological target: T4, huCD4-HIS (human, UniProt P01730 26-390, limits assumed)
# T4 construct: the ELISA is not described in the text of this stretch; also called human CD4-HIS
# Test: ELISA binning; competitor ibalizumab; 100 ng/mL huCD4-HIS, anti-HIS HRP; background 45, max binding 3000000
row,Binder,Ibalizumab ELISA binning signal
1,B1,1.35e+06
2,B2,887000
3,B3,1.96e+06
4,B4,1.7e+06
